In PMC4761300 (Molecular cell, 2016):

Target: the molecule itself
Assay: SDS-PAGE of bicelle-reconstituted peptide

Row | Protein | stoichiometry N
1 | RSNLGWLSLLLLPIPLIVWVKRKEVQKT [human Fas-TM (transmembrane domain peptide of human Fas, C178S)] | 3
2 | RNRLWLLTILVLLIPLVFIYRKYRKRKS [mouse Fas-TM (transmembrane domain peptide of mouse Fas)] | 3
